Data set [1] concerns the target T1, OsPIL15-His (Oryza sativa L. cv. Nipponbare, UniProt Q0JNI9 1-637).
T1 sequence: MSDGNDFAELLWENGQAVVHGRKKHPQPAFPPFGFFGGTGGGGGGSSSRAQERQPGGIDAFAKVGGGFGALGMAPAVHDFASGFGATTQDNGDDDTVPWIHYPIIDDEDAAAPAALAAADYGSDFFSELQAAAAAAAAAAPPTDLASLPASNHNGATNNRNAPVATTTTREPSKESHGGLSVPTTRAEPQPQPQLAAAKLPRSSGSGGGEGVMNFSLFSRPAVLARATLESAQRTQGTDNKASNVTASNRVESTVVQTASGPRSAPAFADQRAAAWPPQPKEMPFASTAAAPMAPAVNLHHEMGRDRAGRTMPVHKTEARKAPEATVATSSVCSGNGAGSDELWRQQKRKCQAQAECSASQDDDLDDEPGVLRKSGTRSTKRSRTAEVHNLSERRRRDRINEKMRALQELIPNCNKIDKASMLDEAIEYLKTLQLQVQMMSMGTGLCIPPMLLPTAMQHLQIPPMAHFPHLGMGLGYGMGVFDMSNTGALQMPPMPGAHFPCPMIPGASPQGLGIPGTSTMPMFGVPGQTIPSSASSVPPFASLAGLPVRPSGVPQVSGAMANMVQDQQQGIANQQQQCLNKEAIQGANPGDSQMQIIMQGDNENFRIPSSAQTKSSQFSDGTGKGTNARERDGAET
As to the kind of experiment: EMSA; EMSA: Beyotime kit binding buffer (composition, salt and pH not stated), 30 min at room temperature, 6% native polyacrylamide gel. The conditions noted are these: protein: recombinant; tags: His (pET28a); chain copies: 2; label: 3' biotin; blunt.

Data set [2] concerns the target T1, OsPIL15-His. As to the kind of experiment: EMSA; strong signal; EMSA: Beyotime kit binding buffer (composition, salt and pH not stated), 30 min at room temperature, 6% native polyacrylamide gel. As to conditions: protein: recombinant; tags: His (pET28a); chain copies: 2; label: 3' biotin; blunt. In general terms: Mobility shift assays separate free from complexed probe on a gel.

B1: Mutant probe 1 (dsDNA)
DNA 1: AATACAGCCGCGACTATCTC
DNA 2: GAGATAGTCGCGGCTGTATT
In the case of B1, the binding result with OsPIL15-His [1] is “no binding”.

B2: N2-box probe (dsDNA)
DNA 1: TCTAATGACACGAGAGCAAGTCC
DNA 2: GGACTTGCTCTCGTGTCATTAGA
With B2, the binding result with OsPIL15-His [1] was “no binding”.

B3: N1-box probe (dsDNA)
DNA 1: TCTAATGACACGCGAGCAAGTCC
DNA 2: GGACTTGCTCGCGTGTCATTAGA
As to B3, in the data set with OsPIL15-His [2], the binding result is “binds”.

B4: Mutant probe 2 (dsDNA)
DNA 1: AATACAGGCAGCCCTATCTC
DNA 2: GAGATAGGGCTGCCTGTATT
For the molecule B4, in the data set with OsPIL15-His [1], the binding result was “no binding”.

B5: G-box probe (dsDNA)
DNA 1: TCTAATGACACGTGAGCAAGTCC
DNA 2: GGACTTGCTCACGTGTCATTAGA
As to B5, the binding result in the data set with OsPIL15-His [1] was “no binding”.

The values above are taken from article PMC6662305, “The basic helix‐loop‐helix transcription factor, OsPIL15, regulates grain size via directly targeting a purine permease gene OsPUP7 in rice”.
